Consider 35 variants from the Human Domainome abundance scans (Beltran et al. 2025).

B1: Segment polarity protein dishevelled homolog DVL-3, residues 2 to 81; numbered along this chain, Q92997 (parent)
chain: GETKIIYHLDGQETPYLVKLPLPAERVTLADFKGVLQRPSYKFFFKSMDDDFGVVKEEISDDNAKLPCFNGRVVSWLVSA

± gives the uncertainty stated by the source.

Variants of B1 are the subject of this series. Kind of series: abundance fitness (aPCA) (normalised: wild type 0, dead -1); higher = more abundant; growth selection in yeast, the domain comes from the species named. The following applies: Homo sapiens.
Regarding GETKIIYHLDGQETPYLVKLPLPAERYTLADFKGVLQRPSYKFFFKSMDDDFGVVKEEISDDNAKLPCFNGRVVSWLVSA, the abundance fitness was -0.651 ± 0.23.
As to GETKIIYHLDGQETPYLVKLPLPAERTTLADFKGVLQRPSYKFFFKSMDDDFGVVKEEISDDNAKLPCFNGRVVSWLVSA, the abundance fitness is -0.762 ± 0.16.
As to GETKIIYHLDGQETPYLVKLPLPAERQTLADFKGVLQRPSYKFFFKSMDDDFGVVKEEISDDNAKLPCFNGRVVSWLVSA, the abundance fitness was -0.831 ± 0.18.
The same measure for GETKIIYHLDGQETPYLVKLPLPAERATLADFKGVLQRPSYKFFFKSMDDDFGVVKEEISDDNAKLPCFNGRVVSWLVSA: -0.478 ± 0.079.
Turning to GETKIIYHLDGQETPYLVKLPLPAERFTLADFKGVLQRPSYKFFFKSMDDDFGVVKEEISDDNAKLPCFNGRVVSWLVSA, the abundance fitness is -0.154 ± 0.12.
For the variant GETKIIYHLDGQETPYLVKLPLPAERPTLADFKGVLQRPSYKFFFKSMDDDFGVVKEEISDDNAKLPCFNGRVVSWLVSA, the abundance fitness was -0.656 ± 0.14.
For GETKIIYHLDGQETPYLVKLPLPAERSTLADFKGVLQRPSYKFFFKSMDDDFGVVKEEISDDNAKLPCFNGRVVSWLVSA, the abundance fitness is -0.675 ± 0.1.
As for GETKIIYHLDGQETPYLVKLPLPAERWTLADFKGVLQRPSYKFFFKSMDDDFGVVKEEISDDNAKLPCFNGRVVSWLVSA, the abundance fitness is -0.929 ± 0.14.
Regarding GETKIIYHLDGQETPYLVKLPLPAERKTLADFKGVLQRPSYKFFFKSMDDDFGVVKEEISDDNAKLPCFNGRVVSWLVSA, the abundance fitness is -0.469 ± 0.11.
Take GETKIIYHLDGQETPYLVKLPLPAERHTLADFKGVLQRPSYKFFFKSMDDDFGVVKEEISDDNAKLPCFNGRVVSWLVSA: the abundance fitness is -0.664 ± 0.19.
As to GETKIIYHLDGQETPYLVKLPLPAERITLADFKGVLQRPSYKFFFKSMDDDFGVVKEEISDDNAKLPCFNGRVVSWLVSA, the abundance fitness came to 0.003 ± 0.1.
Take GETKIIYHLDGQETPYLVKLPLPAERRTLADFKGVLQRPSYKFFFKSMDDDFGVVKEEISDDNAKLPCFNGRVVSWLVSA: the abundance fitness was -0.875 ± 0.087.
With GETKIIYHLDGQETPYLVKLPLPAERETLADFKGVLQRPSYKFFFKSMDDDFGVVKEEISDDNAKLPCFNGRVVSWLVSA the figure was -0.624 ± 0.099; with GETKIIYHLDGQETPYLVKLPLPAERDTLADFKGVLQRPSYKFFFKSMDDDFGVVKEEISDDNAKLPCFNGRVVSWLVSA, -0.987 ± 0.24; with GETKIIYHLDGQETPYLVKLPLPAERGTLADFKGVLQRPSYKFFFKSMDDDFGVVKEEISDDNAKLPCFNGRVVSWLVSA, -0.675 ± 0.063.
As to GETKIIYHLDGQETPYLVKLPLPAERNTLADFKGVLQRPSYKFFFKSMDDDFGVVKEEISDDNAKLPCFNGRVVSWLVSA, the abundance fitness was -0.785 ± 0.24.
For the variant GETKIIYHLDGQETPYLVKLPLPAERCTLADFKGVLQRPSYKFFFKSMDDDFGVVKEEISDDNAKLPCFNGRVVSWLVSA, the abundance fitness is -0.119 ± 0.079.
Turning to GETKIIYHLDGQETPYLVKLPLPASRVTLADFKGVLQRPSYKFFFKSMDDDFGVVKEEISDDNAKLPCFNGRVVSWLVSA, the abundance fitness is -0.115 ± 0.064.
For GETKIIYHLDGQETPYLVKLPLPAPRVTLADFKGVLQRPSYKFFFKSMDDDFGVVKEEISDDNAKLPCFNGRVVSWLVSA, the abundance fitness was -0.965 ± 0.19.
As for GETKIIYHLDGQETPYLVKLPLPAKRVTLADFKGVLQRPSYKFFFKSMDDDFGVVKEEISDDNAKLPCFNGRVVSWLVSA, the abundance fitness was -0.474 ± 0.11.
For GETKIIYHLDGQETPYLVKLPLPAYRVTLADFKGVLQRPSYKFFFKSMDDDFGVVKEEISDDNAKLPCFNGRVVSWLVSA, the abundance fitness is -0.501 ± 0.14.
Consider GETKIIYHLDGQETPYLVKLPLPAIRVTLADFKGVLQRPSYKFFFKSMDDDFGVVKEEISDDNAKLPCFNGRVVSWLVSA, for which the abundance fitness was -0.658 ± 0.25.
Consider GETKIIYHLDGQETPYLVKLPLPARRVTLADFKGVLQRPSYKFFFKSMDDDFGVVKEEISDDNAKLPCFNGRVVSWLVSA, for which the abundance fitness was -0.59 ± 0.072.
The same measure for GETKIIYHLDGQETPYLVKLPLPAWRVTLADFKGVLQRPSYKFFFKSMDDDFGVVKEEISDDNAKLPCFNGRVVSWLVSA: -0.457 ± 0.095; for GETKIIYHLDGQETPYLVKLPLPAVRVTLADFKGVLQRPSYKFFFKSMDDDFGVVKEEISDDNAKLPCFNGRVVSWLVSA: -0.807 ± 0.12.
With GETKIIYHLDGQETPYLVKLPLPATRVTLADFKGVLQRPSYKFFFKSMDDDFGVVKEEISDDNAKLPCFNGRVVSWLVSA, the abundance fitness is -0.356 ± 0.12.
The same measure for GETKIIYHLDGQETPYLVKLPLPAFRVTLADFKGVLQRPSYKFFFKSMDDDFGVVKEEISDDNAKLPCFNGRVVSWLVSA: -0.913 ± 0.22.
For the variant GETKIIYHLDGQETPYLVKLPLPACRVTLADFKGVLQRPSYKFFFKSMDDDFGVVKEEISDDNAKLPCFNGRVVSWLVSA, the abundance fitness was -0.035 ± 0.083.
For the variant GETKIIYHLDGQETPYLVKLPLPAQRVTLADFKGVLQRPSYKFFFKSMDDDFGVVKEEISDDNAKLPCFNGRVVSWLVSA, the abundance fitness was -0.389 ± 0.1.
Turning to GETKIIYHLDGQETPYLVKLPLPALRVTLADFKGVLQRPSYKFFFKSMDDDFGVVKEEISDDNAKLPCFNGRVVSWLVSA, the abundance fitness is -0.825 ± 0.12.
With GETKIIYHLDGQETPYLVKLPLPAGRVTLADFKGVLQRPSYKFFFKSMDDDFGVVKEEISDDNAKLPCFNGRVVSWLVSA the figure was -0.096 ± 0.048; with GETKIIYHLDGQETPYLVKLPLPAHRVTLADFKGVLQRPSYKFFFKSMDDDFGVVKEEISDDNAKLPCFNGRVVSWLVSA, -0.022 ± 0.098.
The same measure for GETKIIYHLDGQETPYLVKLPLPAARVTLADFKGVLQRPSYKFFFKSMDDDFGVVKEEISDDNAKLPCFNGRVVSWLVSA: -0.252 ± 0.07.
For the variant GETKIIYHLDGQETPYLVKLPLPAMRVTLADFKGVLQRPSYKFFFKSMDDDFGVVKEEISDDNAKLPCFNGRVVSWLVSA, the abundance fitness is -0.335 ± 0.22.
With GETKIIYHLDGQETPYLVKLPLPANRVTLADFKGVLQRPSYKFFFKSMDDDFGVVKEEISDDNAKLPCFNGRVVSWLVSA, the abundance fitness is -0.006 ± 0.095.
